biological target: T1, CTNI quality control recombinant protein (PK2-CTNI-1, 170120, produced by the applicant) (human, UniProt P19429 2-210, limits assumed); assay: AMC sensor kinetics, antibody captured, cTnI analyte
T1 construct: also called cardiac troponin I
Experimental: Using the AMC sensor, the purified antibody was diluted with PBST to 10 μg/ml, and the CTNI quality control recombinant protein (PK2-CTNI-1, 170120, produced by the applicant) was serially diluted with PBST to 400 nmol/ml, 200 nmol/ml, 100 nmol/ml, 50 nmol/ml, 25 nmol/ml, 12.5 nmol/ml, 6.25 nmol/ml, and 0 nmol/ml.

T1 sequence (P19429 2-210 limits assumed): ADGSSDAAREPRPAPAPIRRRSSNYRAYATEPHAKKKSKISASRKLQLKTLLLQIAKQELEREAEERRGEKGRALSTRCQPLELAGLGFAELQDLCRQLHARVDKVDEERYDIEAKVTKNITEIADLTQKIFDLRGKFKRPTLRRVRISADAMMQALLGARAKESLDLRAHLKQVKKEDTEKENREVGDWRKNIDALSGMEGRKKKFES

Kd	koff	kon	Binder
0.85 nM	0.000844 s⁻¹	993000 M⁻¹ s⁻¹	Mutation 1-27 (antibody, V domains shown, built as for Mutation 1) VH: EVQLQQSGAELVKPGASVKLSCTASGFNIKDYYMHWMKQRTEQGLDWIGRIDPEDAETRYAPEFQGKATITADTSSNTAYLQLSTLTSEDTAVYYCARYYSSYIPFVYWGQGTLVTASA VL: DVVMTQTPLSLSVSLGDQASISCRSSQSLIYSNRHTYLHWYLQKPGQSPKLLIFQISNRFSGVPDRFSGSGSGTDFTLKINRVEAEDLGVYFCSQSTHIPYTFGSGTKLEIKR
0.756 nM	0.000469 s⁻¹	620000 M⁻¹ s⁻¹	Mutation 1-39 (antibody, V domains shown, built as for Mutation 1) VH: EVQLQQSGAELVKPGASVKLSCTASGFNLKDYFMHWMKQRTEQGLDWIGRIDPEDGETRYAPEFQGKATITADTSSNTAYLQLSTLTSEDTAVYYCARYYSSYVPFVYWGQGTLVTASA VL: DVVMTQTPLSLSVSLGDQASISCRSSQSLIYSNRHTYLHWYLQKPGQSPKLLIFQVSNRFSGVPDRFSGSGSGTDFTLKINRVEAEDLGVYFCSQSTHLPYTFGSGTKLEIKR
0.651 nM	7.75e-05 s⁻¹	119000 M⁻¹ s⁻¹	Mutation 1-43 (antibody, V domains shown, built as for Mutation 1) VH: EVQLQQSGAELVKPGASVKLSCTASGFNLKDYYMHWMKQRTEQGLDWIGRIDPEDAETRYAPEFQGKATITADTSSNTAYLQLSTLTSEDTAVYYCARYYSSYVPFVYWGQGTLVTASA VL: DVVMTQTPLSLSVSLGDQASISCRSSQSIIYSNRHTYLHWYLQKPGQSPKLLIFQVSNRFSGVPDRFSGSGSGTDFTLKINRVEAEDLGVYFCSQSTHIPYTFGSGTKLEIKR
0.809 nM	0.000452 s⁻¹	559000 M⁻¹ s⁻¹	Mutation 1-36 (antibody, V domains shown, built as for Mutation 1) VH: EVQLQQSGAELVKPGASVKLSCTASGFNLKDYYMHWMKQRTEQGLDWIGRIDPEDGETRYAPEFQGKATITADTSSNTAYLQLSTLTSEDTAVYYCARYYSSYLPFVYWGQGTLVTASA VL: DVVMTQTPLSLSVSLGDQASISCRSSQSIIYSNRHTYLHWYLQKPGQSPKLLIFQLSNRFSGVPDRFSGSGSGTDFTLKINRVEAEDLGVYFCSQSTHIPYTFGSGTKLEIKR
0.723 nM	0.000393 s⁻¹	544000 M⁻¹ s⁻¹	Mutation 1-41 (antibody, V domains shown, built as for Mutation 1) VH: EVQLQQSGAELVKPGASVKLSCTASGFNIKDYYMHWMKQRTEQGLDWIGRIDPEDGETRYAPEFQGKATITADTSSNTAYLQLSTLTSEDTAVYYCARYYSSYIPFVYWGQGTLVTASA VL: DVVMTQTPLSLSVSLGDQASISCRSSQSILYSNRHTYLHWYLQKPGQSPKLLIFQISNRFSGVPDRFSGSGSGTDFTLKINRVEAEDLGVYFCSQSTHIPYTFGSGTKLEIKR
0.574 nM	0.000276 s⁻¹	480000 M⁻¹ s⁻¹	Mutation 1-35 (antibody, V domains shown, built as for Mutation 1) VH: EVQLQQSGAELVKPGASVKLSCTASGFNIKDYYMHWMKQRTEQGLDWIGRIDPEDAETRYAPEFQGKATITADTSSNTAYLQLSTLTSEDTAVYYCARYYSSYLPFVYWGQGTLVTASA VL: DVVMTQTPLSLSVSLGDQASISCRSSQSIIYSNRHTYLHWYLQKPGQSPKLLIFQLSNRFSGVPDRFSGSGSGTDFTLKINRVEAEDLGVYFCSQSTHLPYTFGSGTKLEIKR
0.168 nM	3.24e-05 s⁻¹	193000 M⁻¹ s⁻¹	Mutation 1-45 (antibody, V domains shown, built as for Mutation 1) VH: EVQLQQSGAELVKPGASVKLSCTASGFNIKDYYMHWMKQRTEQGLDWIGRIDPEDGETKYAPEFQGKATITADTSSNTAYLQLSTLTSEDTAVYYCARYYSSYVPFVYWGQGTLVTASA VL: DVVMTQTPLSLSVSLGDQASISCRSSQSLIYSNRHTYLHWYLQKPGQSPKLLIFQVSNRFSGVPDRFSGSGSGTDFTLKINRVEAEDLGVYFCSQSTHIPFTFGSGTKLEIKR
0.347 nM	0.00018 s⁻¹	520000 M⁻¹ s⁻¹	Mutation 1-42 (antibody, V domains shown, built as for Mutation 1) VH: EVQLQQSGAELVKPGASVKLSCTASGFNLKDYFMHWMKQRTEQGLDWIGRIDPEDGETKYAPEFQGKATITADTSSNTAYLQLSTLTSEDTAVYYCARYYSSYLPFVYWGQGTLVTASA VL: DVVMTQTPLSLSVSLGDQASISCRSSQSLLYSNRHTYLHWYLQKPGQSPKLLIFQLSNRFSGVPDRFSGSGSGTDFTLKINRVEAEDLGVYFCSQSTHLPYTFGSGTKLEIKR
0.818 nM	0.000164 s⁻¹	200000 M⁻¹ s⁻¹	Mutation 1-40 (antibody, V domains shown, built as for Mutation 1) VH: EVQLQQSGAELVKPGASVKLSCTASGFNLKDYYMHWMKQRTEQGLDWIGRIDPEDGETKYAPEFQGKATITADTSSNTAYLQLSTLTSEDTAVYYCARYYSSYIPFVYWGQGTLVTASA VL: DVVMTQTPLSLSVSLGDQASISCRSSQSLLYSNRHTYLHWYLQKPGQSPKLLIFQISNRFSGVPDRFSGSGSGTDFTLKINRVEAEDLGVYFCSQSTHLPFTFGSGTKLEIKR
0.538 nM	0.000298 s⁻¹	553000 M⁻¹ s⁻¹	Mutation 1-49 (antibody, V domains shown, built as for Mutation 1) VH: EVQLQQSGAELVKPGASVKLSCTASGFNIKDYYMHWMKQRTEQGLDWIGRIDPEDAETRYAPEFQGKATITADTSSNTAYLQLSTLTSEDTAVYYCARYYSSYLPFVYWGQGTLVTASA VL: DVVMTQTPLSLSVSLGDQASISCRSSQSILYSNRHTYLHWYLQKPGQSPKLLIFQLSNRFSGVPDRFSGSGSGTDFTLKINRVEAEDLGVYFCSQSTHIPYTFGSGTKLEIKR
0.723 nM	0.00027 s⁻¹	373000 M⁻¹ s⁻¹	Mutation 1-46 (antibody, V domains shown, built as for Mutation 1) VH: EVQLQQSGAELVKPGASVKLSCTASGFNLKDYFMHWMKQRTEQGLDWIGRIDPEDAETRYAPEFQGKATITADTSSNTAYLQLSTLTSEDTAVYYCARYYSSYIPFVYWGQGTLVTASA VL: DVVMTQTPLSLSVSLGDQASISCRSSQSLIYSNRHTYLHWYLQKPGQSPKLLIFQISNRFSGVPDRFSGSGSGTDFTLKINRVEAEDLGVYFCSQSTHIPFTFGSGTKLEIKR
0.509 nM	8.4e-05 s⁻¹	165000 M⁻¹ s⁻¹	Mutation 1-32 (antibody, V domains shown, built as for Mutation 1) VH: EVQLQQSGAELVKPGASVKLSCTASGFNLKDYFMHWMKQRTEQGLDWIGRIDPEDGETRYAPEFQGKATITADTSSNTAYLQLSTLTSEDTAVYYCARYYSSYIPFVYWGQGTLVTASA VL: DVVMTQTPLSLSVSLGDQASISCRSSQSILYSNRHTYLHWYLQKPGQSPKLLIFQISNRFSGVPDRFSGSGSGTDFTLKINRVEAEDLGVYFCSQSTHLPFTFGSGTKLEIKR
0.956 nM	0.00065 s⁻¹	680000 M⁻¹ s⁻¹	Mutation 1-48 (antibody, V domains shown, built as for Mutation 1) VH: EVQLQQSGAELVKPGASVKLSCTASGFNIKDYFMHWMKQRTEQGLDWIGRIDPEDGETRYAPEFQGKATITADTSSNTAYLQLSTLTSEDTAVYYCARYYSSYIPFVYWGQGTLVTASA VL: DVVMTQTPLSLSVSLGDQASISCRSSQSIIYSNRHTYLHWYLQKPGQSPKLLIFQISNRFSGVPDRFSGSGSGTDFTLKINRVEAEDLGVYFCSQSTHLPYTFGSGTKLEIKR
0.698 nM	0.000115 s⁻¹	165000 M⁻¹ s⁻¹	Mutation 1-29 (antibody, V domains shown, built as for Mutation 1) VH: EVQLQQSGAELVKPGASVKLSCTASGFNLKDYYMHWMKQRTEQGLDWIGRIDPEDGETKYAPEFQGKATITADTSSNTAYLQLSTLTSEDTAVYYCARYYSSYVPFVYWGQGTLVTASA VL: DVVMTQTPLSLSVSLGDQASISCRSSQSLLYSNRHTYLHWYLQKPGQSPKLLIFQVSNRFSGVPDRFSGSGSGTDFTLKINRVEAEDLGVYFCSQSTHLPYTFGSGTKLEIKR
0.189 nM	0.000101 s⁻¹	536000 M⁻¹ s⁻¹	Mutation 1-28 (antibody, V domains shown, built as for Mutation 1) VH: EVQLQQSGAELVKPGASVKLSCTASGFNLKDYFMHWMKQRTEQGLDWIGRIDPEDAETKYAPEFQGKATITADTSSNTAYLQLSTLTSEDTAVYYCARYYSSYLPFVYWGQGTLVTASA VL: DVVMTQTPLSLSVSLGDQASISCRSSQSLIYSNRHTYLHWYLQKPGQSPKLLIFQLSNRFSGVPDRFSGSGSGTDFTLKINRVEAEDLGVYFCSQSTHLPFTFGSGTKLEIKR
0.765 nM	7.54e-05 s⁻¹	98600 M⁻¹ s⁻¹	Mutation 1-51 (antibody, V domains shown, built as for Mutation 1) VH: EVQLQQSGAELVKPGASVKLSCTASGFNLKDYYMHWMKQRTEQGLDWIGRIDPEDGETRYAPEFQGKATITADTSSNTAYLQLSTLTSEDTAVYYCARYYSSYLPFVYWGQGTLVTASA VL: DVVMTQTPLSLSVSLGDQASISCRSSQSLIYSNRHTYLHWYLQKPGQSPKLLIFQLSNRFSGVPDRFSGSGSGTDFTLKINRVEAEDLGVYFCSQSTHLPYTFGSGTKLEIKR
0.81 nM	0.000507 s⁻¹	626000 M⁻¹ s⁻¹	Mutation 1-47 (antibody, V domains shown, built as for Mutation 1) VH: EVQLQQSGAELVKPGASVKLSCTASGFNLKDYYMHWMKQRTEQGLDWIGRIDPEDAETKYAPEFQGKATITADTSSNTAYLQLSTLTSEDTAVYYCARYYSSYVPFVYWGQGTLVTASA VL: DVVMTQTPLSLSVSLGDQASISCRSSQSLLYSNRHTYLHWYLQKPGQSPKLLIFQVSNRFSGVPDRFSGSGSGTDFTLKINRVEAEDLGVYFCSQSTHLPFTFGSGTKLEIKR
0.986 nM	0.000881 s⁻¹	894000 M⁻¹ s⁻¹	Mutation 1-33 (antibody, V domains shown, built as for Mutation 1) VH: EVQLQQSGAELVKPGASVKLSCTASGFNLKDYYMHWMKQRTEQGLDWIGRIDPEDAETKYAPEFQGKATITADTSSNTAYLQLSTLTSEDTAVYYCARYYSSYVPFVYWGQGTLVTASA VL: DVVMTQTPLSLSVSLGDQASISCRSSQSLIYSNRHTYLHWYLQKPGQSPKLLIFQVSNRFSGVPDRFSGSGSGTDFTLKINRVEAEDLGVYFCSQSTHIPFTFGSGTKLEIKR
0.669 nM	0.000362 s⁻¹	541000 M⁻¹ s⁻¹	Mutation 1-30 (antibody, V domains shown, built as for Mutation 1) VH: EVQLQQSGAELVKPGASVKLSCTASGFNIKDYFMHWMKQRTEQGLDWIGRIDPEDAETRYAPEFQGKATITADTSSNTAYLQLSTLTSEDTAVYYCARYYSSYLPFVYWGQGTLVTASA VL: DVVMTQTPLSLSVSLGDQASISCRSSQSIIYSNRHTYLHWYLQKPGQSPKLLIFQLSNRFSGVPDRFSGSGSGTDFTLKINRVEAEDLGVYFCSQSTHIPFTFGSGTKLEIKR

Source: US20210340231A1 (FAPON BIOTECH, published 2021)
